# Molecular target: T1, CD3 epsilon homodimer protein (UniProt P07766 23-126)
# T1 construct: also called CD3 (CD3 epsilon)
# Assay: SPR, CD3e homodimer on chip;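 also: surface plasmon resonance at 25 degrees C, antibodies flowed as analyte over CD3 epsilon homodimer amine-coupled to a CM4 chip, running buffer HBS-EP+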
# T1 sequence (P07766 23-126): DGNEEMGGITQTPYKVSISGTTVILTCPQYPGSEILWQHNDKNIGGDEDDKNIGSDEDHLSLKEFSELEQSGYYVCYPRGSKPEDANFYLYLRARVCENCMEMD
row,Binder,ratio of amounts bound (altered form / unaltered GLS3000 antibody)
1,"GLS3000 R24Q one-arm antibody (H chain CE115HA000) (antibody, human IgG1, kappa, L234A L235A, N297A, name in Kabat numbering, one-arm antibody) heavy: QVQLVESGGGVVQPGRSLRLSCAASGFTFSNAWMHWVRQAPGKGLEWVAQIKAKSNNYATYYAESVKGRFTISRDDSKNSLYLQMNSLKTEDTAVYYCRYVHYGAYYGVDAWGQGTTVTVSSASTKGPSVFPLAPSSKSTSGGTAALGCLVKDYFPEPVTVSWNSGALTSGVHTFPAVLQSSGLYSLSSVVTVPSSSLGTQTYICNVNHKPSNTKVDKKVEPKSCDKTHTCPPCPAPEAAGGPSVFLFPPKPKDTLMISRTPEVTCVVVDVSHEDPEVKFNWYVDGVEVHNAKTKPREEQYASTYRVVSVLTVLHQDWLNGKEYKCKVSNKALPAPIEKTISKAKGQPREPQVYTLPPSRCELTKNQVSLSCAVKGFYPSDIAVEWESNGQPENNYKTTPPVLDSDGSFFLVSKLTVDKSRWQQGNVFSCSVMHEALHNHYTQKSLSLSPDYKDDDDK EPKSSDKTHTCPPCPAPELLGGPSVFLFPPKPKDTLMISRTPEVTCVVVDVSHEDPEVKFNWYVDGVEVHNAKTKPREEQYNSTYRVVSVLTVLHQDWLNGKEYKCKVSNKALPAPIEKTISKAKGQPREPQVCTLPPSRDELTKNQVSLWCLVKGFYPSDIAVEWESNGQPENNYKTTPPVLDSDGSFFLYSKLTVDKSRWQQGNVFSCSVMHEALHNRYTQKSLSLSP light: DIVMTQSPLSLPVTPGEPASISCQSSQSLVHSNRNTYLHWYQQKPGQAPRLLIYKVSNRFSGVPDRFSGSGSGTDFTLKISRVEAEDVGVYYCGQGTQVPYTFGQGTKLEIKRTVAAPSVFIFPPSDEQLKSGTASVVCLLNNFYPREAKVQWKVDNALQSGNSQESVTEQDSKDSTYSLSSTLTLSKADYEKHKVYACEVTHQGLSSPVTKSFNRGEC",0.9
2,"GLS3000 R24S one-arm antibody (H chain CE115HA000) (antibody, human IgG1, kappa, L234A L235A, N297A, name in Kabat numbering, one-arm antibody) heavy: QVQLVESGGGVVQPGRSLRLSCAASGFTFSNAWMHWVRQAPGKGLEWVAQIKAKSNNYATYYAESVKGRFTISRDDSKNSLYLQMNSLKTEDTAVYYCRYVHYGAYYGVDAWGQGTTVTVSSASTKGPSVFPLAPSSKSTSGGTAALGCLVKDYFPEPVTVSWNSGALTSGVHTFPAVLQSSGLYSLSSVVTVPSSSLGTQTYICNVNHKPSNTKVDKKVEPKSCDKTHTCPPCPAPEAAGGPSVFLFPPKPKDTLMISRTPEVTCVVVDVSHEDPEVKFNWYVDGVEVHNAKTKPREEQYASTYRVVSVLTVLHQDWLNGKEYKCKVSNKALPAPIEKTISKAKGQPREPQVYTLPPSRCELTKNQVSLSCAVKGFYPSDIAVEWESNGQPENNYKTTPPVLDSDGSFFLVSKLTVDKSRWQQGNVFSCSVMHEALHNHYTQKSLSLSPDYKDDDDK EPKSSDKTHTCPPCPAPELLGGPSVFLFPPKPKDTLMISRTPEVTCVVVDVSHEDPEVKFNWYVDGVEVHNAKTKPREEQYNSTYRVVSVLTVLHQDWLNGKEYKCKVSNKALPAPIEKTISKAKGQPREPQVCTLPPSRDELTKNQVSLWCLVKGFYPSDIAVEWESNGQPENNYKTTPPVLDSDGSFFLYSKLTVDKSRWQQGNVFSCSVMHEALHNRYTQKSLSLSP light: DIVMTQSPLSLPVTPGEPASISCSSSQSLVHSNRNTYLHWYQQKPGQAPRLLIYKVSNRFSGVPDRFSGSGSGTDFTLKISRVEAEDVGVYYCGQGTQVPYTFGQGTKLEIKRTVAAPSVFIFPPSDEQLKSGTASVVCLLNNFYPREAKVQWKVDNALQSGNSQESVTEQDSKDSTYSLSSTLTLSKADYEKHKVYACEVTHQGLSSPVTKSFNRGEC",0.89
3,"GLS3000 R24T one-arm antibody (H chain CE115HA000) (antibody, human IgG1, kappa, L234A L235A, N297A, name in Kabat numbering, one-arm antibody) heavy: QVQLVESGGGVVQPGRSLRLSCAASGFTFSNAWMHWVRQAPGKGLEWVAQIKAKSNNYATYYAESVKGRFTISRDDSKNSLYLQMNSLKTEDTAVYYCRYVHYGAYYGVDAWGQGTTVTVSSASTKGPSVFPLAPSSKSTSGGTAALGCLVKDYFPEPVTVSWNSGALTSGVHTFPAVLQSSGLYSLSSVVTVPSSSLGTQTYICNVNHKPSNTKVDKKVEPKSCDKTHTCPPCPAPEAAGGPSVFLFPPKPKDTLMISRTPEVTCVVVDVSHEDPEVKFNWYVDGVEVHNAKTKPREEQYASTYRVVSVLTVLHQDWLNGKEYKCKVSNKALPAPIEKTISKAKGQPREPQVYTLPPSRCELTKNQVSLSCAVKGFYPSDIAVEWESNGQPENNYKTTPPVLDSDGSFFLVSKLTVDKSRWQQGNVFSCSVMHEALHNHYTQKSLSLSPDYKDDDDK EPKSSDKTHTCPPCPAPELLGGPSVFLFPPKPKDTLMISRTPEVTCVVVDVSHEDPEVKFNWYVDGVEVHNAKTKPREEQYNSTYRVVSVLTVLHQDWLNGKEYKCKVSNKALPAPIEKTISKAKGQPREPQVCTLPPSRDELTKNQVSLWCLVKGFYPSDIAVEWESNGQPENNYKTTPPVLDSDGSFFLYSKLTVDKSRWQQGNVFSCSVMHEALHNRYTQKSLSLSP light: DIVMTQSPLSLPVTPGEPASISCTSSQSLVHSNRNTYLHWYQQKPGQAPRLLIYKVSNRFSGVPDRFSGSGSGTDFTLKISRVEAEDVGVYYCGQGTQVPYTFGQGTKLEIKRTVAAPSVFIFPPSDEQLKSGTASVVCLLNNFYPREAKVQWKVDNALQSGNSQESVTEQDSKDSTYSLSSTLTLSKADYEKHKVYACEVTHQGLSSPVTKSFNRGEC",0.88
4,"GLS3000 R24Y one-arm antibody (H chain CE115HA000) (antibody, human IgG1, kappa, L234A L235A, N297A, name in Kabat numbering, one-arm antibody) heavy: QVQLVESGGGVVQPGRSLRLSCAASGFTFSNAWMHWVRQAPGKGLEWVAQIKAKSNNYATYYAESVKGRFTISRDDSKNSLYLQMNSLKTEDTAVYYCRYVHYGAYYGVDAWGQGTTVTVSSASTKGPSVFPLAPSSKSTSGGTAALGCLVKDYFPEPVTVSWNSGALTSGVHTFPAVLQSSGLYSLSSVVTVPSSSLGTQTYICNVNHKPSNTKVDKKVEPKSCDKTHTCPPCPAPEAAGGPSVFLFPPKPKDTLMISRTPEVTCVVVDVSHEDPEVKFNWYVDGVEVHNAKTKPREEQYASTYRVVSVLTVLHQDWLNGKEYKCKVSNKALPAPIEKTISKAKGQPREPQVYTLPPSRCELTKNQVSLSCAVKGFYPSDIAVEWESNGQPENNYKTTPPVLDSDGSFFLVSKLTVDKSRWQQGNVFSCSVMHEALHNHYTQKSLSLSPDYKDDDDK EPKSSDKTHTCPPCPAPELLGGPSVFLFPPKPKDTLMISRTPEVTCVVVDVSHEDPEVKFNWYVDGVEVHNAKTKPREEQYNSTYRVVSVLTVLHQDWLNGKEYKCKVSNKALPAPIEKTISKAKGQPREPQVCTLPPSRDELTKNQVSLWCLVKGFYPSDIAVEWESNGQPENNYKTTPPVLDSDGSFFLYSKLTVDKSRWQQGNVFSCSVMHEALHNRYTQKSLSLSP light: DIVMTQSPLSLPVTPGEPASISCYSSQSLVHSNRNTYLHWYQQKPGQAPRLLIYKVSNRFSGVPDRFSGSGSGTDFTLKISRVEAEDVGVYYCGQGTQVPYTFGQGTKLEIKRTVAAPSVFIFPPSDEQLKSGTASVVCLLNNFYPREAKVQWKVDNALQSGNSQESVTEQDSKDSTYSLSSTLTLSKADYEKHKVYACEVTHQGLSSPVTKSFNRGEC",0.87
5,"GLS3000 R29A one-arm antibody (H chain CE115HA000) (antibody, human IgG1, kappa, L234A L235A, N297A, name in Kabat numbering, one-arm antibody) heavy: QVQLVESGGGVVQPGRSLRLSCAASGFTFSNAWMHWVRQAPGKGLEWVAQIKAKSNNYATYYAESVKGRFTISRDDSKNSLYLQMNSLKTEDTAVYYCRYVHYGAYYGVDAWGQGTTVTVSSASTKGPSVFPLAPSSKSTSGGTAALGCLVKDYFPEPVTVSWNSGALTSGVHTFPAVLQSSGLYSLSSVVTVPSSSLGTQTYICNVNHKPSNTKVDKKVEPKSCDKTHTCPPCPAPEAAGGPSVFLFPPKPKDTLMISRTPEVTCVVVDVSHEDPEVKFNWYVDGVEVHNAKTKPREEQYASTYRVVSVLTVLHQDWLNGKEYKCKVSNKALPAPIEKTISKAKGQPREPQVYTLPPSRCELTKNQVSLSCAVKGFYPSDIAVEWESNGQPENNYKTTPPVLDSDGSFFLVSKLTVDKSRWQQGNVFSCSVMHEALHNHYTQKSLSLSPDYKDDDDK EPKSSDKTHTCPPCPAPELLGGPSVFLFPPKPKDTLMISRTPEVTCVVVDVSHEDPEVKFNWYVDGVEVHNAKTKPREEQYNSTYRVVSVLTVLHQDWLNGKEYKCKVSNKALPAPIEKTISKAKGQPREPQVCTLPPSRDELTKNQVSLWCLVKGFYPSDIAVEWESNGQPENNYKTTPPVLDSDGSFFLYSKLTVDKSRWQQGNVFSCSVMHEALHNRYTQKSLSLSP light: DIVMTQSPLSLPVTPGEPASISCRSSQSLVHSNANTYLHWYQQKPGQAPRLLIYKVSNRFSGVPDRFSGSGSGTDFTLKISRVEAEDVGVYYCGQGTQVPYTFGQGTKLEIKRTVAAPSVFIFPPSDEQLKSGTASVVCLLNNFYPREAKVQWKVDNALQSGNSQESVTEQDSKDSTYSLSSTLTLSKADYEKHKVYACEVTHQGLSSPVTKSFNRGEC",0.63
6,"GLS3000 R29D one-arm antibody (H chain CE115HA000) (antibody, human IgG1, kappa, L234A L235A, N297A, name in Kabat numbering, one-arm antibody) heavy: QVQLVESGGGVVQPGRSLRLSCAASGFTFSNAWMHWVRQAPGKGLEWVAQIKAKSNNYATYYAESVKGRFTISRDDSKNSLYLQMNSLKTEDTAVYYCRYVHYGAYYGVDAWGQGTTVTVSSASTKGPSVFPLAPSSKSTSGGTAALGCLVKDYFPEPVTVSWNSGALTSGVHTFPAVLQSSGLYSLSSVVTVPSSSLGTQTYICNVNHKPSNTKVDKKVEPKSCDKTHTCPPCPAPEAAGGPSVFLFPPKPKDTLMISRTPEVTCVVVDVSHEDPEVKFNWYVDGVEVHNAKTKPREEQYASTYRVVSVLTVLHQDWLNGKEYKCKVSNKALPAPIEKTISKAKGQPREPQVYTLPPSRCELTKNQVSLSCAVKGFYPSDIAVEWESNGQPENNYKTTPPVLDSDGSFFLVSKLTVDKSRWQQGNVFSCSVMHEALHNHYTQKSLSLSPDYKDDDDK EPKSSDKTHTCPPCPAPELLGGPSVFLFPPKPKDTLMISRTPEVTCVVVDVSHEDPEVKFNWYVDGVEVHNAKTKPREEQYNSTYRVVSVLTVLHQDWLNGKEYKCKVSNKALPAPIEKTISKAKGQPREPQVCTLPPSRDELTKNQVSLWCLVKGFYPSDIAVEWESNGQPENNYKTTPPVLDSDGSFFLYSKLTVDKSRWQQGNVFSCSVMHEALHNRYTQKSLSLSP light: DIVMTQSPLSLPVTPGEPASISCRSSQSLVHSNDNTYLHWYQQKPGQAPRLLIYKVSNRFSGVPDRFSGSGSGTDFTLKISRVEAEDVGVYYCGQGTQVPYTFGQGTKLEIKRTVAAPSVFIFPPSDEQLKSGTASVVCLLNNFYPREAKVQWKVDNALQSGNSQESVTEQDSKDSTYSLSSTLTLSKADYEKHKVYACEVTHQGLSSPVTKSFNRGEC",0.41

# — patent publication US20240270846A1 (published 2024)
